Tests used:
[1] = target: plasminogen
[2] = target: Lysine (Lys)-Plasminogen

Binder	plasminogenolytic activity (PAU/mg) (PAU/mg (single chain)) [1]	ratio of the rates of Lys- to Glu-plasminogen activation in the presence of fibrin stimulator (Lys/Glu) (Lys/Glu (ratio of rates), single chain) [2]
mt-PA9 (enzyme, diglycosylated: obligatory glycosylation site located in the first exon of Kringle 1, and the site in the Serine Protease domain) SYQDTRATCYEDQGISYRGTWSTAESGAECTNWNSSALAQKPYSGRRPDAIRLGLGNHNYCRNPDGDAKPWCHVLKNRRLTWEYCDVPSCSTCGLRQYSQPQFRIKGGLFADIASHPWQAAIFAKHRRSPGERFLCGGILISSCWILSAAHCFQERFPPHHLTVILGRTYRVVPGEEEQKFEVEKYIVHKEFDDDTYDNDIALLQLKSDSSRCAQESSVVRTVCLPPADLQLPDWTECELSGYGKHEALSPFYSERLKEAHVRLYPSSRCTSQHLLNRTVTDNMLCAGDTRSGGPQANLHDACQGDSGGPLVCLNDGRMTLVGIISWGLGCGQKDVPGVYTKVTNYLDWIRDNMRP	50	2
Variant mt-PA6 (mt-PA6-V) (enzyme, glycosylated at amino acids 276 and 12) SYQGNSDCYFGNGSAYRGTHSLTESGASCLPWNSMILIGKVYTAQNPSAQALGLGKHNYCRNPDGDAKPWCHVLKNRRLTWEYCDVPSCSTCGLRQYSQPQFRIKGGLFADIASHPWQAAIFAKHRRSPGERFLCGGILISSCWILSAAHCFQERFPPHHLTVILGRTYRVVPGEEEQKFEVEKYIVHKEFDDDTYDNDIALLQLKSDSSRCAQESSVVRTVCLPPADLQLPDWTECELSGYGKHEALSPFYSERLKEAHVRLYPSSRCTSQHLLNRTVTDNMLCAGDTRSGGPQANLHDACQGDSGGPLVCLNDGRMTLVGIISWGLGCGQKDVPGVYTKVTNYLDWIRDNMRP	56	1.4

Other lines, results leading:

plasminogenolytic activity (PAU/mg) (PAU/mg (single chain)) [1]	ratio of the rates of Lys- to Glu-plasminogen activation in the presence of fibrin stimulator (Lys/Glu) (Lys/Glu (ratio of rates), single chain) [2]	Binder
189	3.3	mt-PA6-D (enzyme, diglycosylated: alternate glycosylation consensus sequence at the amino acids surrounding position 33 (equivalent to amino acid 205 of t-PA) in Kringle 2, and the glycosylation consensus sequence within the Serine Protease domain) SYQGNSDCYFGQGSAYRGTHSLTESGASCLPWNGSMILIGKVYTAQNPSAQALGLGKHNYCRNPDGDAKPWCHVLKNRRLTWEYCDVPSCSTCGLRQYSQPQFRIKGGLFADIASHPWQAAIFAKHRRSPGERFLCGGILISSCWILSAAHCFQERFPPHHLTVILGRTYRVVPGEEEQKFEVEKYIVHKEFDDDTYDNDIALLQLKSDSSRCAQESSVVRTVCLPPADLQLPDWTECELSGYGKHEALSPFYSERLKEAHVRLYPSSRCTSQHLLNRTVTDNMLCAGDTRSGGPQANLHDACQGDSGGPLVCLNDGRMTLVGIISWGLGCGQKDVPGVYTKVTNYLDWIRDNMRP
59	2	mt-PA6-E (enzyme, diglycosylated: alternate glycosylation consensus sequence at the amino acids surrounding position 48 (equivalent to amino acid 219 of t-PA) in Kringle 2 (claim 2: monoglycosylated at amino acid residue number 47), and the glycosylation consensus sequence within the Serine Protease domain) SYQGNSDCYFGQGSAYRGTHSLTESGASCLPWNSMILIGKVYTAQNGSAQALGLGKHNYCRNPDGDAKPWCHVLKNRRLTWEYCDVPSCSTCGLRQYSQPQFRIKGGLFADIASHPWQAAIFAKHRRSPGERFLCGGILISSCWILSAAHCFQERFPPHHLTVILGRTYRVVPGEEEQKFEVEKYIVHKEFDDDTYDNDIALLQLKSDSSRCAQESSVVRTVCLPPADLQLPDWTECELSGYGKHEALSPFYSERLKEAHVRLYPSSRCTSQHLLNRTVTDNMLCAGDTRSGGPQANLHDACQGDSGGPLVCLNDGRMTLVGIISWGLGCGQKDVPGVYTKVTNYLDWIRDNMRP
87	1	Primary mt-PA6 (mt-PA6-P) (enzyme, glycosylated at amino acid 276 but not at amino acid 12) SYQGNSDCYFGNGSAYRGTHSLTESGASCLPWNSMILIGKVYTAQNPSAQALGLGKHNYCRNPDGDAKPWCHVLKNRRLTWEYCDVPSCSTCGLRQYSQPQFRIKGGLFADIASHPWQAAIFAKHRRSPGERFLCGGILISSCWILSAAHCFQERFPPHHLTVILGRTYRVVPGEEEQKFEVEKYIVHKEFDDDTYDNDIALLQLKSDSSRCAQESSVVRTVCLPPADLQLPDWTECELSGYGKHEALSPFYSERLKEAHVRLYPSSRCTSQHLLNRTVTDNMLCAGDTRSGGPQANLHDACQGDSGGPLVCLNDGRMTLVGIISWGLGCGQKDVPGVYTKVTNYLDWIRDNMRP

From US5595736
